Measurements taken from paper PMC11094075.

Molecular target: HA-Ago2K212A, in Ago2-knockout A549 and HCC1806 cells (human) (UniProt Q9UKV8)
Assay: co-IP; Ago2-knockout A549 and HCC1806 cells expressing HA-Ago2Wt, HA-Ago2K212A or HA-Ago2K212R; IP with anti-HA, blot for endogenous CAV1; ratio pCAV1/pHA; vehicle or TM (10 µM)

percent decrease of co-precipitated CAV1 per precipitated HA-Ago2 (pCAV1/pHA) against HA-Ago2Wt: 46%
Substance: Caveolin-1 (CAV1), endogenous (from UniProt Q03135 1-178) (natural protein)
